Source: patent US20240294604A1 (Stanford University, published 2024)
Residue numbers refer to the chain shown, from its start. One block for each binder: values may come before it.

What was measured:
BAFF [1] = assay: cell binding titration by flow cytometry; soluble BAFF varied to 10 nM on cells displaying the BCMA clone; B.P is not defined in the filing
[2] = target: T1, A Proliferation Inducing Ligand (APRIL) (human, UniProt O75888 105-250); assay: cell binding titration by flow cytometry; soluble APRIL varied to 10 nM on cells displaying the BCMA clone; BP is not defined in the filing
T1 sequence: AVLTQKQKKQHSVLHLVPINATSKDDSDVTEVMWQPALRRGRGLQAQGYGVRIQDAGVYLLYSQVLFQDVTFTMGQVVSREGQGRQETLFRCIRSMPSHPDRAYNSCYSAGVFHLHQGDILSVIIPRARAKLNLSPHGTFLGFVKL

[3] = target: T1, A Proliferation Inducing Ligand (APRIL); assay: cell binding titration by flow cytometry; soluble APRIL varied to 10 nM on cells displaying the BCMA clone
BAFF [4] = assay: cell binding titration by flow cytometry; soluble BAFF varied to 10 nM on cells displaying the BCMA clone
BAFF [5] = assay: cell binding titration by flow cytometry; soluble BAFF varied on cells displaying the BCMA clone

B3: BCMA#72 (receptor)
variant BCMA extracellular domain: MLQMAGQCSQNEYFDGLLYACIPCQLRCSSNTPPLACQRYCNASVTNSVKGTNA
notes: also called Clone #72; sBCMA variant clone 72
B.P (BAFF [1]): 121
BP [2]: 325
Bmax [3]: 5860 A.U.
Kd [3]: 0.018 nM
Bmax (BAFF [4]): 974 A.U.
Kd (BAFF [4]): 0.008 nM

B4: BCMA#95 (receptor)
variant BCMA extracellular domain: B3 variant BCMA extracellular domain with M1V, L2S, M4T, N11D, G16S
notes: also called Clone #95
BP [2]: 258
Bmax [3]: 7230 A.U.
Kd [3]: 0.028 nM

B6: BCMA#73 (receptor)
variant BCMA extracellular domain: B3 variant BCMA extracellular domain with Y19H
notes: also called Clone #73; clone #22
binding result (BAFF [5]): no binding
BP [2]: 102
Bmax [3]: 5530 A.U.
Kd [3]: 0.054 nM

B7: BCMA#75 (receptor)
variant BCMA extracellular domain: MLPMAGQCPQNEYFDSLLYACIPCQLRCSSSTPPLACQHYCNASVTRSVEGTNA
notes: also called Clone #75; clones #49, 75-94
BP [2]: 441
Bmax [3]: 7060 A.U.
Kd [3]: ~0.016 nM

Binders with a lower Kd [3], results first:

BP [2]: 527
Bmax [3]: 7910 A.U.
Kd [3]: 0.015 nM
Bmax (BAFF [4]): 870 A.U.
Kd (BAFF [4]): 0.028 nM
B5: BCMA#106 (receptor)
variant BCMA extracellular domain: B3 variant BCMA extracellular domain with M1V, L2S, M4T, Y19H, N31D, T32I
notes: also called Clone #106; clones #106-111

B.P (BAFF [1]): 136
BP [2]: 1030
Bmax [3]: 8270 A.U.
Kd [3]: 0.008 nM
Bmax (BAFF [4]): 1230 A.U.
Kd (BAFF [4]): 0.009 nM
B1: BCMA#71 (receptor)
variant BCMA extracellular domain: B3 variant BCMA extracellular domain with N53D
notes: also called Clone #71; sBCMA variant clone 71

B.P (BAFF [1]): 186
BP [2]: 1310
Bmax [3]: 9200 A.U.
Kd [3]: 0.007 nM
Bmax (BAFF [4]): 1680 A.U.
Kd (BAFF [4]): 0.009 nM
B2: BCMA#74 (receptor)
variant BCMA extracellular domain: B3 variant BCMA extracellular domain with S9P, N11D, N47S, N53D
notes: also called Clone #74; sBCMA variant clone 74
